Source: paper PMC5365143

Target: EGFP-HDQ74 (mutant huntingtin exon 1 with 74 glutamine residues)
Assay: FRET or BRET

B1: AavLEA1-mCherry (natural protein)
chain: MSSQQNQNRQGEQQEQGYMEAAKEKVVNAWESTKETLSSTAQAAAEKTAEFRDSAGETIRDLTGQAQEKGQEFKERAGEKAEETKQRAGEKMDETKQRAGEMRENAGQKMEEYKQQGKGKAEELRDTAAEKLHQAGEKVKGRD
dFRET: 3%
